The target in this test is 変性ヒトCD26(ホルマリン固定パラフィン包埋した細胞・組織中、又はSDS/DTT煮沸処理した細胞溶解物中のヒトCD26) (human) (UniProt P27487). As to the kind of experiment: immunostaining of FFPE samples, titration of purified antibody (data not shown).

Results on two molecules are retold here after patent publication JP2019156807A.

“And” between values parts separate entries of the source, which are not always exact repeats. Equal entries are not always repeated.

UniProt P27487, sequence (P27487 whole entry): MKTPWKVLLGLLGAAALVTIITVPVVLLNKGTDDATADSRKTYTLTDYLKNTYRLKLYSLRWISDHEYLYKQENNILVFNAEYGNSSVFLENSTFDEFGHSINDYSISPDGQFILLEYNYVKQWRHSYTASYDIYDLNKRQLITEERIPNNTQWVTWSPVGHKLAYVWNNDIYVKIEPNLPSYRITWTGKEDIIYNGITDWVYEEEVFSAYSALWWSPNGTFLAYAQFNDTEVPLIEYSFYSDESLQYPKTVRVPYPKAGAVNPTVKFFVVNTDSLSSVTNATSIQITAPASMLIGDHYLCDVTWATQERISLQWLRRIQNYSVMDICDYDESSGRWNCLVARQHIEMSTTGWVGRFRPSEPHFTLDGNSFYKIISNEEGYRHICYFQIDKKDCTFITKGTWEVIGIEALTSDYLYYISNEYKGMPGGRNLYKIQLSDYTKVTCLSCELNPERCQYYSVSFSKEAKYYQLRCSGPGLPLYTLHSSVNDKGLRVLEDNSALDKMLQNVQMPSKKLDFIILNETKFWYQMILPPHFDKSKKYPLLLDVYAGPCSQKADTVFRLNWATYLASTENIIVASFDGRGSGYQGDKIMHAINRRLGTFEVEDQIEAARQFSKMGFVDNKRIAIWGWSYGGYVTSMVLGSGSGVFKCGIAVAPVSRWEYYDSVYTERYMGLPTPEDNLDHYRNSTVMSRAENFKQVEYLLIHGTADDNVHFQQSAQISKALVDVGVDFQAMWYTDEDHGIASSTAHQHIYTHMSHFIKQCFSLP

B1: 抗ヒトCD26モノクローナル抗体U16−3 (antibody, V domains shown)
VH: EVKLVESGGGLVQPGGSLKLSCATSGFTFSDFYMYWVRQTPEKRLEWVAYISKGGGTTSYPDTVKGRFTISRDNAKNTLYLQLSRLKAEDSAMYYCARRMDYWGQGTSVTVSS
VL: DVQMNQSPSSMYASLGERVTITCKASQDINSYLSWFQQKPGKSPKTLIYRANRLVDGVPSRFSGSGSGQDYSLTISSLDYEDMGIYYCLQYDEFPLTFGAGTKLELK
With B1, the 免疫染色の最適濃度 is 0.1 μg/mL and 0.2 μg/mL.

B2: 抗ヒトCD26モノクローナル抗体U38−8 (antibody, V domains shown)
VH: EVKLVESGGGLVQPGGSLKLSCATSGFTFSDFYMYWVRQTPEKRLEWVAYISKGGGTTSYPDTVKGRFTISRDNAKNTLYLQLSRLKAEDSAMYYCARRMDYWGQGTSVTVSS
VL: DVVVTQTPLSLPVSLGDQASISCRSSQGLEHSSGNTYLHWYLQRPGQSPKLLIYKVSNRFSGVPDRFSGSGSGTDFTLKISRVEAEDLGVYFCSQSTPVPTWTFGGGTKLEIK
The molecule B2 came in with a 免疫染色の最適濃度 of 0.5 μg/mL.
